Data set [1] addresses T1, Topo IIC (Giardia lamblia, UniProt E2RU90 489-1491).
T1 sequence: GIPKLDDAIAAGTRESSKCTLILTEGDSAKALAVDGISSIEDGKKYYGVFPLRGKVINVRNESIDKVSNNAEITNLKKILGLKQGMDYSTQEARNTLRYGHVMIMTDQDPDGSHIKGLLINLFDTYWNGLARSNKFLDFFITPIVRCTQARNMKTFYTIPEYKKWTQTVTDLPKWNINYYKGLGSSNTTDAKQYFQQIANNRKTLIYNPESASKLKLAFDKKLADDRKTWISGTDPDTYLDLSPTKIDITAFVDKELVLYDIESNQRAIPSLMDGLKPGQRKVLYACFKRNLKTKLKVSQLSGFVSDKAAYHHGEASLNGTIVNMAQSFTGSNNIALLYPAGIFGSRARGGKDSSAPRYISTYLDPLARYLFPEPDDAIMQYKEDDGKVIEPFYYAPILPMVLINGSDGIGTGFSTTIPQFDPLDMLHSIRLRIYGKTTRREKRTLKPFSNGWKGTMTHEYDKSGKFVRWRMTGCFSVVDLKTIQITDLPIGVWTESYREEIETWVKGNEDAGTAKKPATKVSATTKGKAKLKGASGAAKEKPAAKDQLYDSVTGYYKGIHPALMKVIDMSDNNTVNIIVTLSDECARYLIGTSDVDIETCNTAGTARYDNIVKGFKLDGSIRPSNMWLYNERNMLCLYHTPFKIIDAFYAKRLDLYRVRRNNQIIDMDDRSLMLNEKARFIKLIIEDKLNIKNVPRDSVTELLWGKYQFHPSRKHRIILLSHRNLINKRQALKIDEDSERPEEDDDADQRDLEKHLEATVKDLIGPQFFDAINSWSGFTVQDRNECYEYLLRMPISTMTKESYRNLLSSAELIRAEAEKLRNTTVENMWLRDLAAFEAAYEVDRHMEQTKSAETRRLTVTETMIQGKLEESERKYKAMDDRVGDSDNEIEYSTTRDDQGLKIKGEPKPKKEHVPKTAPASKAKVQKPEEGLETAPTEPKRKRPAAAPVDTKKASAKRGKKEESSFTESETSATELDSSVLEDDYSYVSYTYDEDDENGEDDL
As to the kind of experiment: EMSA; EMSA: 0.02 pmol 5'-labeled probe, 5 ng protein, 20 ul, 0.5 ug poly(dI-dC), 15 min, room temperature, 6% acrylamide gel; buffer, salt and pH only by citation. The note with it: protein: recombinant; tags: C-terminal V5-His; chain copies: 2.

Substrate in data set [2]: Nc1ncnc2c1ncn2[C@@H]1O[C@H](COP(=O)(O)OP(=O)(O)OP(=O)(O)O)[C@@H](O)[C@H]1O
As to the kind of experiment: coupled pyruvate kinase/lactate dehydrogenase ATPase assay (NADH, A340), Lineweaver-Burk. In kind it is biochemical, Giardia duodenalis. The following applies: without DNA, 37 °C, 8 ng Topo II.

For data set [3], the target named is T1, Topo IIC. The experiment in a line: competition; 200-fold excess vs labeled IIBS; EMSA: 0.02 pmol 5'-labeled probe, 5 ng protein, 20 ul, 0.5 ug poly(dI-dC), 15 min, room temperature, 6% acrylamide gel; buffer, salt and pH only by citation. The following applies: protein: recombinant; tags: C-terminal V5-His; chain copies: 2.
Another data set addresses T2, Myb2 (Giardia lamblia, UniProt Q8ISM2 1-530).
T2 sequence: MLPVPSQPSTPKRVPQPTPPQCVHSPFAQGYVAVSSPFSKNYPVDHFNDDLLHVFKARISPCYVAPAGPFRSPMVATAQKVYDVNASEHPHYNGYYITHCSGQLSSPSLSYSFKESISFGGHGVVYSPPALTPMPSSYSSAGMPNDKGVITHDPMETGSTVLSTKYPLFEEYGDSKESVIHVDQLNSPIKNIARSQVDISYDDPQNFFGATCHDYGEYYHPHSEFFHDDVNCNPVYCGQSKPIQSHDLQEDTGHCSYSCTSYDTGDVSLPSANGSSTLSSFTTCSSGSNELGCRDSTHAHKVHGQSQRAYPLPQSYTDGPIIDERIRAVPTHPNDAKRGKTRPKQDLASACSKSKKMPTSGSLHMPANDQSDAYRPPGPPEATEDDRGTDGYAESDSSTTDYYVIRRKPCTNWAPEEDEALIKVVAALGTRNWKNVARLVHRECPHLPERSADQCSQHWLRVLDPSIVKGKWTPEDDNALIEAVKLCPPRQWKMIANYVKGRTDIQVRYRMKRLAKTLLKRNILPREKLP
The experiment in a line: EMSA; EMSA: 0.02 pmol 5'-labeled probe, 5 ng protein, 20 ul, 0.5 ug poly(dI-dC), 15 min, room temperature, 6% acrylamide gel; buffer, salt and pH only by citation. The following applies: protein: recombinant.

Experimental findings from article PMC3656124, “DNA Topoisomerase II Is Involved in Regulation of Cyst Wall Protein Genes and Differentiation in Giardia lamblia” (PLoS Neglected Tropical Diseases, 2013) are described below.

B1: 18S-30/-1 (dsDNA)
DNA 1: GGCGCCCGGCCCGCGGCGCCCGCGCCCGGC
DNA 2: GCCGGGCGCGGGCGCCGCGGGCCGGGCGCC
In the case of B1, in the data set with Topo IIC [1], the binding result is on record as “no binding”.

B2: Topo II (Giardia lamblia ATCC 50803) (protein)
chain: MAQKAKIQRVTGSEHVLLRPDMYVGSVSAAETFLWLYEPGQGLYYTKANIVPGLCKIFDEIIVNASDNKQRDSDRSAEHKMTYIKCSVDVASGAISVENDGVEGLLHFDEKEKMYLPTLAFGILMTSSNYDDTEQRVTGGRNGYGAKLTNIFSTKFTVLLQENGQVFEQTWTDNMKNTKPPRIEDVRDKKKNFIRFSFTPDYMKFGMTSGLDRDHAAYMMRRAVDVAGCNIGLKLIINGTELKIANFEQYARMVYRSINPEITQFYETSKGDTAQVNTNDSDSDLDIKSAAKAKPKTKRTKKTIETNSLLIPVDDLSKPSDWTHDYLKVIPVNKFWDIGLGYTDSGELVQVSFVNSINTTDGGTHVDAILDLIMSQLNDVLIKSFQQDAKNAKKLTRQQLKSCLVLFIRSLVVNPSFDSQTKISLKTDKAALLRSLGSTQAELATLATQLVKRIQEIRPLWNSLRQASYNQAAKLLTKTDGSKTSQLLGIPKLDDAIAAGTRESSKCTLILTEGDSAKALAVDGISSIEDGKKYYGVFPLRGKVINVRNESIDKVSNNAEITNLKKILGLKQGMDYSTQEARNTLRYGHVMIMTDQDPDGSHIKGLLINLFDTYWNGLARSNKFLDFFITPIVRCTQARNMKTFYTIPEYKKWTQTVTDLPKWNINYYKGLGSSNTTDAKQYFQQIANNRKTLIYNPESASKLKLAFDKKLADDRKTWISGTDPDTYLDLSPTKIDITAFVDKELVLYDIESNQRAIPSLMDGLKPGQRKVLYACFKRNLKTKLKVSQLSGFVSDKAAYHHGEASLNGTIVNMAQSFTGSNNIALLYPAGIFGSRARGGKDSSAPRYISTYLDPLARYLFPEPDDAIMQYKEDDGKVIEPFYYAPILPMVLINGSDGIGTGFSTTIPQFDPLDMLHSIRLRIYGKTTRREKRTLKPFSNGWKGTMTHEYDKSGKFVRWRMTGCFSVVDLKTIQITDLPIGVWTESYREEIETWVKGNEDAGTAKKPATKVSATTKGKAKLKGASGAAKEKPAAKDQLYDSVTGYYKGIHPALMKVIDMSDNNTVNIIVTLSDECARYLIGTSDVDIETCNTAGTARYDNIVKGFKLDGSIRPSNMWLYNERNMLCLYHTPFKIIDAFYAKRLDLYRVRRNNQIIDMDDRSLMLNEKARFIKLIIEDKLNIKNVPRDSVTELLWGKYQFHPSRKHRIILLSHRNLINKRQALKIDEDSERPEEDDDADQRDLEKHLEATVKDLIGPQFFDAINSWSGFTVQDRNECYEYLLRMPISTMTKESYRNLLSSAELIRAEAEKLRNTTVENMWLRDLAAFEAAYEVDRHMEQTKSAETRRLTVTETMIQGKLEESERKYKAMDDRVGDSDNEIEYSTTRDDQGLKIKGEPKPKKEHVPKTAPASKAKVQKPEEGLETAPTEPKRKRPAAAPVDTKKASAKRGKKEESSFTESETSATELDSSVLEDDYSYVSYTYDEDDENGEDDL
B2: the Km in data set [2] came out at 210 µM.

B3: ran-51/-20 (dsDNA)
DNA 1: TAAAATAAATTAAATCGAAATTAAAACTTTAA
DNA 2: TTAAAGTTTTAATTTCGATTTAATTTATTTTA
Take B3: in the data set with Topo IIC [3], the binding result is listed as “binds”.

B4: cwp2-30/+8 (dsDNA)
DNA 1: CAGCAGCTCAACAGTGGCTGGGAAAATAAAATGATCGC
DNA 2: GCGATCATTTTATTTTCCCAGCCACTGTTGAGCTGCTG
For B4, the binding result in the data set with Topo IIC [3] is listed as “binds”.

B5: cwp1-45/-1 (dsDNA)
DNA 1: GTTTACAACTCTCAGATCAAGAAACACAGAAATAAAATATCAGGG
DNA 2: CCCTGATATTTTATTTCTGTGTTTCTTGATCTGAGAGTTGTAAAC
For the molecule B5, the binding result in the data set with Topo IIC [1] is listed as “binds”.

B6: topo II-85/-40 (dsDNA)
DNA 1: TGTAAATCAATATTATCGTCCTACAGCTGCTAGCTTGGTGACAGGA
DNA 2: TCCTGTCACCAAGCTAGCAGCTGTAGGACGATAATATTGATTTACA
As for B6, the binding result with Myb2 (label: 5'-32P) is reported as “binds”.

B7: poly(A) with TT insertion (dsDNA)
DNA 1: AAAAAAAAAAATTAAAAAAAAAA
DNA 2: TTTTTTTTTTAATTTTTTTTTTT
As for B7, the binding result in the data set with Topo IIC [3] is “binds”.

B8: cwp1-90/-46 (dsDNA)
DNA 1: CTGGCTAACAGTCTACAGTCTACAATTTACAGTATACAATCTACA
DNA 2: TGTAGATTGTATACTGTAAATTGTAGACTGTAGACTGTTAGCCAG
Take B8: the binding result with Myb2 (label: 5'-32P for Myb2) is given as “binds”.

B9: poly(A) with TC insertion (dsDNA)
DNA 1: AAAAAAAAAAATCAAAAAAAAAA
DNA 2: TTTTTTTTTTGATTTTTTTTTTT
Turning to B9, the binding result in the data set with Topo IIC [3] is given as “binds”.

B10: cwp3-30/+10 (dsDNA)
DNA 1: GTCTTTCCCAAAAAATAAGTTACTACTGATATGTTTTCTC
DNA 2: GAGAAAACATATCAGTAGTAACTTATTTTTTGGGAAAGAC
As for B10, the binding result in the data set with Topo IIC [3] is given as “binds”.

B11: 18S-60/-31 (dsDNA)
DNA 1: CCGTGCCAGGCGGCGGCCCCCGCGCAGGGA
DNA 2: TCCCTGCGCGGGGGCCGCCGCCTGGCACGG
On to B11, for which the binding result with Topo IIC [1] is recorded as “no binding”.

B12: poly(A) (dsDNA)
DNA 1: AAAAAAAAAAAAAAAAAAAAAAA
DNA 2: TTTTTTTTTTTTTTTTTTTTTTT
Regarding B12, in the data set with Topo IIC [3], the binding result is “binds”.
